From the nanobody polyreactivity screen of Harvey et al. (2022)

assay: yeast display, Sf9 membrane polyspecificity reagent, FACS + sequencing; frameworks hold sequencing errors
Procedure, shortened: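 Using colony PCR, genes from sorted yeast display clones were amplified, then sequenced on MiSeq at 2 × 250 and filtered by CDR length. The clones had been stained with 10% biotinylated, detergent-solubilized Sf9 membrane reagent for 1 hour at 4 °C and sorted by FACS into low and high (top ~1%) gates on anti-HA and streptavidin fluorescence. Polyreactivity labels come from the gate of origin.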

Sequence	polyreactivity (PSR sort gate)
QVQLVESGGGLVQAGGSLRLSCAASGRIFVYYAMGWYRPAPWKERELVAVITSGGITYYADSVKGRFTISRDNAKNTVYLQMNSLKPEDTAVYYCAARGHQYDPGSSGKKYYYWGQGTQVTVSS	high polyreactivity
QVQLVESGGGLVQAGGSLRLSCAASGRIFVYYAMGWYRQAPGKERELVAAISSGGDRTYYADSVKGRFTISRDNAKNTVYLQMNCLKPEDTAVYYCAKVYSTVKRYHWVGSRYDYWGQGTQVTVSS	high polyreactivity
QVQLVESGGGLVQAGGSLRLSCAASGRIFVYYAMGWYRQAPGKERELVASISYSGASTYYADSVKGRFTISRDNAKNTVYLQMNSLKPEDTAVYYCATDVRGVDGEDDYWGQGTQVTVSS	low polyreactivity
QVQLVESGGGLVQAGGSLRLSCAASGRIFWDNAMGWYRQAPGKERELVAAISGSGGNTYYADSVKGRFTISRDNAKNTVYLQMNSLKPEDTAVYYCNAYGHYTKRYRYGGWFDYWGQGTQVTVSS	low polyreactivity
QVQLVESGGGLVQAGGSLRLSCAASGRIFWDNAMGWYRQAPGKERELVAAITFSGGSTYYADSVKGRFTISRDNAKNTVYLQMNSLKPEDTAVYYCAKGEWVYWRPWYEYWGQGTQVTVSS	low polyreactivity
QVQLVESGGGLVQAGGSLRLSCAASGRIFWDYAMGWYRQAPGKERELVAVITFSGDSTYYADSVKGRFTISRDNAKHTVYIQMNSLKPEDTAVYYCAAARAIRQFWYVATFEYWGQGTLVTVSS	low polyreactivity
QVQLVESGGGLVQAGGSLRLSCAASGRIFWEYAMGWYRQAPGKERELVAAITWRVGSTYYADSVKGRFTISRDNAKNTVYLQMNSLKPEDTAVYYCAAARYLSIYNYWGQGTQVTVSS	low polyreactivity
QVQLVESGGGLVQAGGSLRLSCAASGRIFWGNAMGWYRQAPGKERELVAAITSGDGTNYADSVKGRFTISRDNAKNTVYLQMNSLKPEDTAVYYCSYYYWGQGTQVTVSS	low polyreactivity
QVQLVESGGGLVQAGGSLRLSCAASGRIFWGYAMGWYRQAPGKERELVAGITTGGSTKYADSVKGRFTISRDNAKNTVYLQMNSLKPEDTAVYYCAATGKWYHFYHYGYWGQGTQVTVSS	low polyreactivity
QVQLVESGGGLVQAGGSLRLSCAASGRIFWGYAMGWYRQAPGKERELVAGITTGGSTKYADSVKGRFTISRDNAKNTVYLQMNSLKPVDTAVYYCAADDQYGYVYYAFWGYDYWGQGTQVTVSS	low polyreactivity
QVQLVESGGGLVQAGGSLRLSCAASGRIFWGYAMGWYRQAPGKEREVVAAISWSGGSTYYADSVKGRFTISRDNAKNTVYLQMNSLKPEDTAVYYCAALRFQSYNYWGQGTQVTVSS	high polyreactivity
QVQLVESGGGLVQAGGSLRLSCAASGRIFWINAMGWYRQAPGKERELVAAISSGGGTHYADSVKGRFTISRDNAKNTVYLQMNSLKPEDTAVSYCARRYQRKKPVFPHYQGAYDYWGQGTQVTVSS	low polyreactivity
QVQLVESGGGLVQAGGSLRLSCAASGRIFWNYAMGWYREAPGKERELVASINWSGGSTYSADSVKGRFTISRDNAKNTVYLQMNSLKPEDTAVYYCNQDGRVYLDHDYWGQGTQVTVSS	low polyreactivity
QVQLVESGGGLVQAGGSLRLSCAASGRIFWRNTMGWYRQAPGKERELVAAITRTGGSTYYADSVKGRFTISRDNAKNTVYLQMNSLKPEDTAVYYCAVYARWYGYGYGYWGQGTQVTVSS	high polyreactivity
QVQLVESGGGLVQAGGSLRLSCAASGRIFWSNAMGWYRQAPGKERELVAAITWRGGSTYADSVKGRFTISRDNAKNTVYLQMNSLKPEDTAVYYCAASPSGWRYDYWGQGTQVTVSS	high polyreactivity
QVQLVESGGGLVQAGGSLRLSCAASGRIFWSYAMGWYRQAPGKERELVAAIRSGGTTDYADAVKGRFTISRDNAKYTVYLQMNSLKPEDTADYYCNREYRGAINYIYYYWGQGTQVTVSS	low polyreactivity
QVQLVESGGGLVQAGGSLRLSCAASGRIFWVYAMGWYRQAPGKERELVAAIDWSDGITYYADSVKGRFTISRDNAKNTVYLQMNSLKPEDTAVYYCAAESVIYQTYNYWGQGTQVTVSS	high polyreactivity
QVQLVESGGGLVQAGGSLRLSCAASGRIFWVYTMGWYRQAPGKERELVAAITSADSTNYADSVKGRFTISRDNAKNTVYLQMNSLKAEDTAVYYCAARLARDQVREWDERYYYWGQGTQVTVSS	low polyreactivity
QVQLVESGGGLVQAGGSLRLSCAASGRIFWVYVMGWYRQAPGKERELVADITSIGGSTYYADSVKGRFTISRDNAKNTVDLQMNSLKPEDTAVYYCAAARRPTYCPVYPYFGYEYWGQGTQVTVSS	low polyreactivity
QVQLVESGGGLVQAGGSLRLSCAASGRIFWWYAMGWYRQAPGKERELVAVIDDSGGITYYADSVKGRFTISRDNAKHTVYLQMNSLKPEDTAVYYCARNVNAQKVLGGFDSWGQGTQVTVSS	low polyreactivity
QVQLVESGGGLVQAGGSLRLSCAASGRIFWWYVMGWYRQAPGKERELVAAITRSGVSTYYADSVKGRFTLSRDNAKNTVYLQINSLKPEDTAVYYCNVGPWPRSYAHRGYWGQVTQVTVSS	high polyreactivity
QVQLVESGGGLVQAGGSLRLSCAASGRIFWYNAMGWYRQAPGKERELVAAISSGGSTSYADSVKGRFTISRDNAKNTVYLQMNSLKPEDTAVYYCAKDDERKQGQYPPYDSWGQGTQVTVSS	low polyreactivity

Sequence	polyreactivity (PSR sort gate)
QVQLVESGGGLVQAGGSLRLSCAASGRIFWYVLGWYRQAPGNERELVATITSSGGSSYYADSVKGRFTISRDNAKNTVYLQMNSLKPEDTAVNYCAVDLQTLGADRIITVYVGEDYWGQGTQVTVSS	low polyreactivity
QVQLVESGGGLVQAGGSLRLSCAASGRIFWYYAMGWYRPAPGKERELVATISYGGGNTYYADSVKGRFTISRDNAKNTVYLQMNSLKPEDTAVYYCARVPYAYLPYKPFQQYSYDYWGQGTQVTVSS	high polyreactivity
QVQLVESGGGLVQAGGSLRLSCAASGRIFWYYAMGWYRQAPGKERELVAAITSGGSTNYADSVKGRFTISRDNEKNTVYLQMNSLKQEDTAVYYCNARWPYSGMNYWGQGTQVTVSS	high polyreactivity
QVQLVESGGGLVQAGGSLRLSCAASGRIFWYYAMGWYRQAPGKERELVATISYVGGNTYYADSVKGRFTISRDNAKNTVYLQMNSLKPDDTAVYYCARVPYAYLPYKPFQQYSYDYWGQGTQVTVSS	high polyreactivity
QVQLVESGGGLVQAGGSLRLSCAASGRIFWYYPMGGYRQAPGKEREYVATINTSGGSTYYADSVKGRFTISRDNAKNTVYLQMNRLKPEDTAVYYCNAAYRFYRTEYYSWGQGTQVTVSS	low polyreactivity
QVQLVESGGGLVQAGGSLRLSCAASGRIFWYYTMGWYRQAPGKERELVAAISRGGSTYYADSVKGRFTISRDNAKNTVYLQMNSLKPEDTAVYYCAAQESWKIYDYWGQGTQVTVSS	low polyreactivity
QVQLVESGGGLVQAGGSLRLSCAASGRIFYANTMGWYRQAPGKERELVAAITGDGSTYADSVKGRFTISRDNAKNTVYLQMNSLKPEDTAVFYCAAEVDYSAFDYWGQGTQVTVSS	low polyreactivity
QVQLVESGGGLVQAGGSLRLSCAASGRIFYDYAMGWYRQAPGKERELVAAISGSGGSTYYADSVKGRFTISRDNAKNTVYLQMNSLKPEDTAVYYCNRYTTRYYPGGDYWGQGTQVTVSS	high polyreactivity
QVQLVESGGGLVQAGGSLRLSCAASGRIFYDYTMVWYRQAPGKERDLVATITSGGNTNYADSVKGRFTISRDNAKNTVYLPMNSLKPVDTAVYYCAPSYSAKRVKTGRVWYGYWGQGTQVTVSS	low polyreactivity
QVQLVESGGGLVQAGGSLRLSCAASGRIFYEYAMGWYRQAPGKERELVAAITRGDSTYYADSVKGRCTISRDNAKNTVYLQMNSLKPEDTAVYYCNAGVFDYSGDSNYWGQGTQVTVSS	low polyreactivity
QVQLVESGGGLVQAGGSLRLSCAASGRIFYFNAMAWYRQAPGKERELVAAISGSGGDTYYADSVKGRFTISRDNAKNTVYLQMNRLKPEETAVYYCAAEVYTWGQGTQVSVSS	low polyreactivity
QVQLVESGGGLVQAGGSLRLSCAASGRIFYFNAMGWYRQAPGKEREFVASINSIGDSTYYADSVKGRFTISRDNAKNTVYIQMNSQKPEDTAVYYCKADHGVINYRLDYWGHGTQVTVSS	low polyreactivity
QVQLVESGGGLVQAGGSLRLSCAASGRIFYFNAMGWYRQAPGKERELVAAISGSGGDTYYADTVKGRFTISRDNAKNTVYLQMNCLKPEDTAVYYCAAEVYTWGQGTQVTVSS	low polyreactivity
QVQLVESGGGLVQAGGSLRLSCAASGRIFYFNAMGWYRQAPGKERELVAAISWRGGSTYYADSVKGRFTISRDYAKNTVYLQMNSLKPEDTAVYYCNAVLWGYWPGYDYWGQGTQVTVSS	high polyreactivity
QVQLVESGGGLVQAGGSLRLSCAASGRIFYFNGMGWDRQAPGKERELVAAITWNTGSTYYADSVKGRFTISRDNAKNTVYLQMNSLKPEDTAVYYCNAPWAGQHPTLWKGGYWGQGTQVTVSS	low polyreactivity
QVQLVESGGGLVQAGGSLRLSCAASGRIFYFNTMGWYRQAPGKERELVAAISRSGTSTYYADSVKGRFTISRDNAKNTVYLQMNSLKPEDTAVYYCAAVKSYYKLDYWGQGTQVTVSS	high polyreactivity
QVQLVESGGGLVQAGGSLRLSCAASGRIFYFYAMGWYRQAPGKERELVAAISTSGGSTYYADSVKGRFTISRDNAKITVYLQMNSLKPEDTAVYYCAARFRYYGSEYDYWGQGTQVTVSS	low polyreactivity
QVQLVESGGGLVQAGGSLRLSCAASGRIFYFYAMGWYRQAPGKEREMVASISYSGGNTYYADSVKGRFTISRDNAKNTVYLQMNSLKPEDTAVYYCNVLPNTGARGYYYWGQGTQVTVSS	low polyreactivity
QVQLVESGGGLVQAGGSLRLSCAASGRIFYFYAMVWYRQAPGKERELVAAISTSGGSTYYADSVKGRFTISRDNAKNTVYLQMNSLKPEDTAVYYCAARFRYYGSEYDYWGQGTQVTVSS	low polyreactivity
QVQLVESGGGLVQAGGSLRLSCAASGRIFYGNALGWYRHAPGKERELVATISSSGGRTTYADSVKGRFTISRDNAKNTVYLPMNSLKPEDTAVYYCAAQGYWTGYDYWGQGTQVTVSS	high polyreactivity
QVQLVESGGGLVQAGGSLRLSCAASGRIFYGNAMGWYRQAPGKERELVAAITRSGSSTYYADSVKGRFTISRDNAKNTVYLQMNSLKPEVTAVYYCAVKYFDYVGQYAYYYWGQGTQVTVSS	high polyreactivity
